In doi:10.1101/2022.11.21.517443 (bioRxiv, 2022):
Values joined by “and” are separate entries in the source; they are usually repeats but may differ in a detail not shown here. Equal entries are not always repeated.

Target: the molecule itself
Assay: single-particle cryo-EM 2D classification

B1: Escherichia coli glutamine synthetase (enzyme, UniProt P0A9C5 1-469, looked up)
chain: MSAEHVLTMLNEHEVKFVDLRFTDTKGKEQHVTIPAHQVNAEFFEEGKMFDGSSIGGWKGINESDMVLMPDASTAVIDPFFADSTLIIRCDILEPGTLQGYDRDPRSIAKRAEDYLRSTGIADTVLFGPEPEFFLFDDIRFGSSISGSHVAIDDIEGAWNSSTQYEGGNKGHRPAVKGGYFPVPPVDSAQDIRSEMCLVMEQMGLVVEAHHHEVATAGQNEVATRFNTMTKKADEIQIYKYVVHNVAHRFGKTATFMPKPMFGDNGSGMHCHMSLSKNGVNLFAGDKYAGLSEQALYYIGGVIKHAKAINALANPTTNSYKRLVPGYEAPVMLAYSARNRSASIRIPVVSSPKARRIEVRFPDPAANPYLCFAALLMAGLDGIKNKIHPGEAMDKNLYDLPPEEAKEIPQVAGSLEEALNELDLDREFLKAGGVFTDEAIDAYIALRREEDDRVRMTPHPVEFELYYSV
  stoichiometry N: 10 subunits and 8 subunits
